The values below come from US20210246166A1 (Bayer, published 2021).

Numbered stars: 1 amine (or outer) side, 2 acyl side, 3 side chain; on linkers, the order of the positions; unused ones are H or OH. Bridge positions count the residues as written; N and C are the ends. Square brackets hold non-standard residues; d marks the D form. Ends that are not written are not given here. * marks the point of attachment. Freidinger's Lactam = (2S)-2-[(3R)-3-amino-2-oxopyrrolidin-1-yl]-4-methylpentanoic acid (Freidinger's lactam), CC(C)C[C@@H](C(=O)[*:2])N1CC[C@@H](N[*:1])C1=O; X10 = (2R)‑2‑amino‑3‑(trifluoromethylsulfanyl)propanoic acid, O=C([C@H](CSC(F)(F)F)N[*:1])[*:2]; X15 = (3S)‑2‑azaspiro(4.4)nonane‑3‑carboxylic acid, O=C([C@@H]1CC2(CCCC2)CN1[*:1])[*:2]; (R)‑Pyrrolidine‑3‑acetic acid = O=C(C[C@H]1CCN([*:1])C1)[*:2]; Ida = iminodiacetic acid, O=C(CN(CC(=O)[*:3])[*:1])[*:2]; X5 = Tetrahydropyranyl‑4‑acetic acid, O=C(CC1CCOCC1)*; Oic = O=C(O)[C@@H]1C[C@@H]2CCCC[C@@H]2N1; βPro(3R) = O=C([C@@H]1CCN([*:1])C1)[*:2]; tBuAla = CC(C)(C)C[C@H](N)C(=O)O; Pen = CC(C)(S)[C@H](N)C(=O)O; NMeC = CN[C@@H](CS)C(=O)O; NPhGly = O=C(O)CNc1ccccc1; Orn = NCCC[C@H](N)C(=O)O; Abu = CC[C@H](N)C(=O)O; βAla = NCCC(=O)O; Sar = CNCC(=O)O

Assay in all cases: cell-based or functional assay
In test [1] the target is T1, recombinant human MASP1 active protease (amino acids 297-699, C-terminal His Tag) (human, UniProt P48740 297-699).
T1 sequence: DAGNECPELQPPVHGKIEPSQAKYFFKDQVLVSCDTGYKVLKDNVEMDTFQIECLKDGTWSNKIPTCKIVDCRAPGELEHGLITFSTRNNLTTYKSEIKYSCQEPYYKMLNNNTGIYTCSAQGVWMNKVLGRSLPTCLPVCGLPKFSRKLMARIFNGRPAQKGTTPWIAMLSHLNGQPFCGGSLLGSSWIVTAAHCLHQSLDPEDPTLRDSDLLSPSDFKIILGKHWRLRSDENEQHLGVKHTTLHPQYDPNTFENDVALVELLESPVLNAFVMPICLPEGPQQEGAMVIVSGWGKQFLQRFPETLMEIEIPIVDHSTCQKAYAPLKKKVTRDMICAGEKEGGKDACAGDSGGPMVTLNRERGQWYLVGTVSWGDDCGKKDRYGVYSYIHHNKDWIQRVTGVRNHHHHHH

Test [2] addresses recombinant human MASP2 active protease (amino acids 297-686, C-terminal His Tag) (human, UniProt O00187 297-686).
In test [3] the target is recombinant rat MASP2 active protease (amino acids 296-685, C-terminal His Tag) (rat, UniProt Q9JJS8 296-685).
Chain of recombinant rat MASP2 active protease (amino acids 296-685, C-terminal His Tag) (Q9JJS8 other isoform, or with tags, fused parts or gaps limits assumed): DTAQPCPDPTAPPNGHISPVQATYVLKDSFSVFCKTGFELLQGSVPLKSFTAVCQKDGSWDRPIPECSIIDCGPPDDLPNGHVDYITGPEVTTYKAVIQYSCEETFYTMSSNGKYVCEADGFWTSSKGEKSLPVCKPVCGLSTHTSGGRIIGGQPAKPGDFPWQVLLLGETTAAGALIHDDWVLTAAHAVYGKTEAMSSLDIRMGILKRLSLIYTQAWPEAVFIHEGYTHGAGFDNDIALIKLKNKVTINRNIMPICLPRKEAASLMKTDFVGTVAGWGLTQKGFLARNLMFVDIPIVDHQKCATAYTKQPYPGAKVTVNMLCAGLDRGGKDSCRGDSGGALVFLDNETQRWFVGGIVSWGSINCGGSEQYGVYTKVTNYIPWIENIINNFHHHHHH
For test [4], the target named is T2, recombinant rat MASP1 active protease (amino acids 302-704, C-terminal His Tag) (rat, UniProt Q8CHN8 302-704).
T2 sequence: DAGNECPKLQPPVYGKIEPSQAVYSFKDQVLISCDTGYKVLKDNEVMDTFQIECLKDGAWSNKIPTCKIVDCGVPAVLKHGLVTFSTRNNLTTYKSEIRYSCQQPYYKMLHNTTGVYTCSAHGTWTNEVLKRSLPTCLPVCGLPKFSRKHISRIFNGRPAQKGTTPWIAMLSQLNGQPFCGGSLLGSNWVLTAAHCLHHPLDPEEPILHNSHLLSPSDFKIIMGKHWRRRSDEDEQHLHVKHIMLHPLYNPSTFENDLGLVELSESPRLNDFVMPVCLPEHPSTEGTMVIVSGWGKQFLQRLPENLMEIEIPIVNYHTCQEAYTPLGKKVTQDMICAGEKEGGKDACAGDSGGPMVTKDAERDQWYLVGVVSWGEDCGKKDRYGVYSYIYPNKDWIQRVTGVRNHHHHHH

Chain of recombinant human MASP2 active protease (amino acids 297-686, C-terminal His Tag) (O00187 other isoform, or with tags, fused parts or gaps limits assumed): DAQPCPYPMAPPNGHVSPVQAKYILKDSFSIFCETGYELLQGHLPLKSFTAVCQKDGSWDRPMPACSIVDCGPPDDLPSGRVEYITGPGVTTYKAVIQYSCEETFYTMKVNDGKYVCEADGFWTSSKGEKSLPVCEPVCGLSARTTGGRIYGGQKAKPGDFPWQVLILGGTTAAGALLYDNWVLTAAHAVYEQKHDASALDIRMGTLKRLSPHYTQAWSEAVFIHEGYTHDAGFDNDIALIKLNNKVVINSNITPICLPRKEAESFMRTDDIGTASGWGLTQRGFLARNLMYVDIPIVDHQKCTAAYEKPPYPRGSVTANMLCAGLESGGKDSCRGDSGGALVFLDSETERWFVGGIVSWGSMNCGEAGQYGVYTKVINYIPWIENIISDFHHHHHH

B1: Example 311: ((N-Ph)G)-IC+SRS-((tBu)A)-PPI-(Pen)+IP-NH2 (peptide)
peptide: [NPhGly]ICSRS[tBuAla]PPI[Pen]IP-NH2
modifications: disulfide 3-11; N-terminus assumed
SMILES: CC[C@H](C)[C@H](NC(=O)CNc1ccccc1)C(=O)N[C@H]1CSSC(C)(C)[C@@H](C(=O)N[C@H](C(=O)N2CCC[C@H]2C(N)=O)[C@@H](C)CC)NC(=O)[C@H]([C@@H](C)CC)NC(=O)[C@@H]2CCCN2C(=O)[C@@H]2CCCN2C(=O)[C@H](CC(C)(C)C)NC(=O)[C@H](CO)NC(=O)[C@H](CCCNC(=N)N)NC(=O)[C@H](CO)NC1=O
Take B1: in test [1], the “human MASP1 IC50” value is 20 nM. Besides, the “human MASP2 IC50” value in test [2] came to 49 nM.

On to {Tetrahydro‑2H‑pyran‑3‑ylacetic acid}-ICSRSLP[Oic]I[Pen]IP-NH2 (disulfide 2-10) [Example 304: (Tetrahydro-2H-pyran-3-ylacetic acid)-IC+SRSLP-(Oic)-I-(Pen)+IP-NH2], for which, in test [1], the “human MASP1 IC50” value worked out at 19 nM. For the same molecule, the “human MASP2 IC50” value in test [2] was 27 nM.

B2: Example 313: ((N-Me)G)-IC+SRSLPPIC+I-(Abu)-D-OH (peptide)
peptide: [Sar]ICSRSLPPICI[Abu]D-OH
modifications: disulfide 3-11; N-terminus assumed
SMILES: CC[C@H](NC(=O)[C@@H](NC(=O)[C@@H]1CSSC[C@H](NC(=O)[C@@H](NC(=O)CNC)[C@@H](C)CC)C(=O)N[C@@H](CO)C(=O)N[C@@H](CCCNC(=N)N)C(=O)N[C@@H](CO)C(=O)N[C@@H](CC(C)C)C(=O)N2CCC[C@H]2C(=O)N2CCC[C@H]2C(=O)N[C@@H]([C@@H](C)CC)C(=O)N1)[C@@H](C)CC)C(=O)N[C@@H](CC(=O)O)C(=O)O
With B2, the “human MASP1 IC50” value in test [1] amounted to 21 nM. Besides, the “human MASP2 IC50” value in test [2] worked out at 250 nM.

B3: Example 306: (beta-A)-IC+SRSLPPIC+IPD-OH (peptide)
peptide: [βAla]ICSRSLPPICIPD-OH
modifications: disulfide 3-11; N-terminus assumed
SMILES: CC[C@H](C)[C@H](NC(=O)CCN)C(=O)N[C@H]1CSSC[C@@H](C(=O)N[C@H](C(=O)N2CCC[C@H]2C(=O)N[C@@H](CC(=O)O)C(=O)O)[C@@H](C)CC)NC(=O)[C@H]([C@@H](C)CC)NC(=O)[C@@H]2CCCN2C(=O)[C@@H]2CCCN2C(=O)[C@H](CC(C)C)NC(=O)[C@H](CO)NC(=O)[C@H](CCCNC(=N)N)NC(=O)[C@H](CO)NC1=O
B3: the “human MASP1 IC50” value in test [1] came out at 20 nM. The “human MASP2 IC50” value in test [2] was determined as 450 nM.

B4: Example 530: ((N-Me)G)-IC+SRSLP-(Oic)-I-(Pen)+IP-((R)-Pyrrolidine-3-acetic acid)-OH (peptide)
peptide: [Sar]ICSRSLP[Oic]I[Pen]IP[(R)‑Pyrrolidine‑3‑acetic acid]-OH
modifications: disulfide 3-11; N-terminus assumed
SMILES: CC[C@H](C)[C@H](NC(=O)CNC)C(=O)N[C@H]1CSSC(C)(C)[C@@H](C(=O)N[C@H](C(=O)N2CCC[C@H]2C(=O)N2CC[C@H](CC(=O)O)C2)[C@@H](C)CC)NC(=O)[C@H]([C@@H](C)CC)NC(=O)[C@@H]2C[C@@H]3CCCC[C@@H]3N2C(=O)[C@@H]2CCCN2C(=O)[C@H](CC(C)C)NC(=O)[C@H](CO)NC(=O)[C@H](CCCNC(=N)N)NC(=O)[C@H](CO)NC1=O
As for B4, the “rat MASP2 IC50” value in test [3] was found to be 18.4 nM. In addition, the “rat MASP1 IC50” value in test [4] worked out at 23.3 nM.

As for [dP]ICSRSLP[Oic]I[Pen]IP[Ida]-OH (disulfide 3-11; also: HCl salt) [Example 528: pIC+SRSLP-(Oic)-I-(Pen)+IP-(Ida)-OH (HCl salt)], in test [3], the “rat MASP2 IC50” value was 8.2 nM. Also, in test [4], the “rat MASP1 IC50” value was found to be 420 nM.

B5: Example 312: ((N-Me)G)-IC+SRSLPPIC+IPd-OH (peptide)
peptide: [Sar]ICSRSLPPICIP[dD]-OH
modifications: disulfide 3-11; N-terminus assumed
SMILES: CC[C@H](C)[C@H](NC(=O)CNC)C(=O)N[C@H]1CSSC[C@@H](C(=O)N[C@H](C(=O)N2CCC[C@H]2C(=O)N[C@H](CC(=O)O)C(=O)O)[C@@H](C)CC)NC(=O)[C@H]([C@@H](C)CC)NC(=O)[C@@H]2CCCN2C(=O)[C@@H]2CCCN2C(=O)[C@H](CC(C)C)NC(=O)[C@H](CO)NC(=O)[C@H](CCCNC(=N)N)NC(=O)[C@H](CO)NC1=O
In the case of B5, in test [1], the “human MASP1 IC50” value was 21 nM. In test [2], the “human MASP2 IC50” value came out at 530 nM.

B6: Example 529: (Orn)-IC+SRS-((2R)-2-amino-3-(trifluoromethylsulfanyl)propanoic acid)-PPI-(Pen)+IPD-OH (peptide)
peptide: [Orn]ICSRS[X10]PPI[Pen]IPD-OH
modifications: disulfide 3-11; N-terminus assumed
SMILES: CC[C@H](C)[C@H](NC(=O)[C@@H](N)CCCN)C(=O)N[C@H]1CSSC(C)(C)[C@@H](C(=O)N[C@H](C(=O)N2CCC[C@H]2C(=O)N[C@@H](CC(=O)O)C(=O)O)[C@@H](C)CC)NC(=O)[C@H]([C@@H](C)CC)NC(=O)[C@@H]2CCCN2C(=O)[C@@H]2CCCN2C(=O)[C@H](CSC(F)(F)F)NC(=O)[C@H](CO)NC(=O)[C@H](CCCNC(=N)N)NC(=O)[C@H](CO)NC1=O
Take B6: the “rat MASP2 IC50” value in test [3] was found to be 100 nM. Also, in test [4], the “rat MASP1 IC50” value worked out at 730 nM.

B7: Example 305: (Tetrahydropyranyl-4-acetic acid)-IC+SRS-((tBu)A)-PPI-((N-Me)C)+I-NH2 (peptide)
peptide: X5-ICSRS[tBuAla]PPI[NMeC]I-NH2
modifications: disulfide 2-10
SMILES: CC[C@H](C)[C@H](NC(=O)[C@@H]1CSSC[C@H](NC(=O)[C@@H](NC(=O)CC2CCOCC2)[C@@H](C)CC)C(=O)N[C@@H](CO)C(=O)N[C@@H](CCCNC(=N)N)C(=O)N[C@@H](CO)C(=O)N[C@@H](CC(C)(C)C)C(=O)N2CCC[C@H]2C(=O)N2CCC[C@H]2C(=O)N[C@@H]([C@@H](C)CC)C(=O)N1C)C(N)=O
For B7, the “human MASP1 IC50” value in test [1] came out at 19 nM. The “human MASP2 IC50” value in test [2] was 9.4 nM.

B8: Example 532: ((N-Me)G)-IC+SRSLP-(Oic)-I-(Pen)+IP-((R)-Pyrrolidine-3-carboxylic acid)-OH (peptide)
peptide: [Sar]ICSRSLP[Oic]I[Pen]IP[βPro(3R)]-OH
modifications: disulfide 3-11; N-terminus assumed
SMILES: CC[C@H](C)[C@H](NC(=O)CNC)C(=O)N[C@H]1CSSC(C)(C)[C@@H](C(=O)N[C@H](C(=O)N2CCC[C@H]2C(=O)N2CC[C@@H](C(=O)O)C2)[C@@H](C)CC)NC(=O)[C@H]([C@@H](C)CC)NC(=O)[C@@H]2C[C@@H]3CCCC[C@@H]3N2C(=O)[C@@H]2CCCN2C(=O)[C@H](CC(C)C)NC(=O)[C@H](CO)NC(=O)[C@H](CCCNC(=N)N)NC(=O)[C@H](CO)NC1=O
Turning to B8, the “rat MASP2 IC50” value in test [3] was 17.6 nM. Further, the “rat MASP1 IC50” value in test [4] stood at 24.2 nM.

B9: Example 531: ((N-Me)G)-IC+SRS-((tBu)A)-P-((3S)-2-azaspiro[4.4]nonane-3-carboxylic acid)-I-(Pen)+IPD-OH (peptide)
peptide: [Sar]ICSRS[tBuAla]P[X15]I[Pen]IPD-OH
modifications: disulfide 3-11; N-terminus assumed
SMILES: CC[C@H](C)[C@H](NC(=O)CNC)C(=O)N[C@H]1CSSC(C)(C)[C@@H](C(=O)N[C@H](C(=O)N2CCC[C@H]2C(=O)N[C@@H](CC(=O)O)C(=O)O)[C@@H](C)CC)NC(=O)[C@H]([C@@H](C)CC)NC(=O)[C@@H]2CC3(CCCC3)CN2C(=O)[C@@H]2CCCN2C(=O)[C@H](CC(C)(C)C)NC(=O)[C@H](CO)NC(=O)[C@H](CCCNC(=N)N)NC(=O)[C@H](CO)NC1=O
For B9, the “rat MASP2 IC50” value in test [3] was 74.1 nM. Further, in test [4], the “rat MASP1 IC50” value stood at 26 nM.

B10: Example 310: ((N-Me)G)-I-(Pen)+SRS-((tBu)A)-PPI-C+IP-NH2 (peptide)
peptide: [Sar]I[Pen]SRS[tBuAla]PPICIP-NH2
modifications: disulfide 3-11; N-terminus assumed
SMILES: CC[C@H](C)[C@H](NC(=O)CNC)C(=O)N[C@@H]1C(=O)N[C@@H](CO)C(=O)N[C@@H](CCCNC(=N)N)C(=O)N[C@@H](CO)C(=O)N[C@@H](CC(C)(C)C)C(=O)N2CCC[C@H]2C(=O)N2CCC[C@H]2C(=O)N[C@@H]([C@@H](C)CC)C(=O)N[C@H](C(=O)N[C@H](C(=O)N2CCC[C@H]2C(N)=O)[C@@H](C)CC)CSSC1(C)C
In the case of B10, in test [1], the “human MASP1 IC50” value came out at 20 nM. Also, the “human MASP2 IC50” value in test [2] came out at 3000 nM.

B11: Example 527: ((N-Me)G)-IC+SRSLP-(Oic)-I-(Pen)+IP-(Freidinger's Lactam)-OH (peptide)
peptide: [Sar]ICSRSLP[Oic]I[Pen]IP[Freidinger's Lactam]-OH
modifications: disulfide 3-11; N-terminus assumed
SMILES: CC[C@H](C)[C@H](NC(=O)CNC)C(=O)N[C@H]1CSSC(C)(C)[C@@H](C(=O)N[C@H](C(=O)N2CCC[C@H]2C(=O)N[C@@H]2CCN([C@@H](CC(C)C)C(=O)O)C2=O)[C@@H](C)CC)NC(=O)[C@H]([C@@H](C)CC)NC(=O)[C@@H]2C[C@@H]3CCCC[C@@H]3N2C(=O)[C@@H]2CCCN2C(=O)[C@H](CC(C)C)NC(=O)[C@H](CO)NC(=O)[C@H](CCCNC(=N)N)NC(=O)[C@H](CO)NC1=O
Take B11: the “rat MASP2 IC50” value in test [3] was 42 nM. Also, in test [4], the “rat MASP1 IC50” value was found to be 240 nM.
